Blank lines part the entries; values can stand above or below the molecule they belong to.
Columns and labels:
GABABR1a = target: T1, GABABR1a (Mus musculus, UniProt Q9WV18); experiment: Xenopus melanophore pigment aggregation/dispersion assay, GABABR1a alone; format: cell-based, murine; settings: melanophores transfected with GABABR1a alone; up to 1 mM
T1 construct: GABABR1a was expressed by subcloning full-length GABABR1a into the NheI-NotI site of pcDNA3.1 or pCIneo; expressed in transfected cells; host or cells: Xenopus laevis melanophores (transient)

murine GABABR1a (murine) = murine GABABR1a (murine) (UniProt Q9WV18); experiment: cell-based or functional assay
[1] = target: the molecule itself; experiment: [125I]CGP71872 photolabelling of COS-7 membranes, SDS-PAGE (FIG. 9)
[2] = target: T2, FLAG epitope-tagged HG20 receptor subunit (FLAG epitope fused to amino acids 52-941 of HG20) (human, UniProt O75899 52-941); experiment: co-immunoprecipitation and immunoblot
T2 construct: Expressed from SF-HG20/pcDNA3.1 in COS cells and melanophores, or from pT7TS cRNA in oocytes; For immunoprecipitation it was solubilized from membranes with digitonin; also called FLAG-HG20; SF-HG20
T2 sequence: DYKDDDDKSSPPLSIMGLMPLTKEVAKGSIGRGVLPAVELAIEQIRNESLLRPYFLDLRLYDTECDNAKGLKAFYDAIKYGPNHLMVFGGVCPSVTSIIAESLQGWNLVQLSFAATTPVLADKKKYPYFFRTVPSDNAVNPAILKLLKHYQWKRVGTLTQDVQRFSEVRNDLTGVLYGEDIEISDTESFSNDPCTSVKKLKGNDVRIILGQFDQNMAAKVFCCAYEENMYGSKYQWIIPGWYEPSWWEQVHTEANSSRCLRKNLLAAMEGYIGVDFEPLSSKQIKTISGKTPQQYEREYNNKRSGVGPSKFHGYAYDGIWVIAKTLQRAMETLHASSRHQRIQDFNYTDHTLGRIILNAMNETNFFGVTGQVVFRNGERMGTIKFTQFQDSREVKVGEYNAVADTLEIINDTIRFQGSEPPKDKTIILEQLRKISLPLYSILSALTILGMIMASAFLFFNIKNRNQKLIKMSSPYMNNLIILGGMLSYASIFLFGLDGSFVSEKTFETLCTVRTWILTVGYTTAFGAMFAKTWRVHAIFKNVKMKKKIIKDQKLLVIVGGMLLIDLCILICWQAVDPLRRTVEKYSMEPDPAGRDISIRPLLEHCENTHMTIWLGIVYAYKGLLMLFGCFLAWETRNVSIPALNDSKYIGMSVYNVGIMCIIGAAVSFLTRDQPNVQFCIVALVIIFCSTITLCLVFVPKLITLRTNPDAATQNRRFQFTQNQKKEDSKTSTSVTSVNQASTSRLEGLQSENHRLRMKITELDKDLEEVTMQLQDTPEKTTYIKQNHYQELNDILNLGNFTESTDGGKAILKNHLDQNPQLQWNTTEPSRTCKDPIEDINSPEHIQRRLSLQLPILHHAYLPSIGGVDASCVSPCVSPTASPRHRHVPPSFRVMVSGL

Experimental for wild-type HEK293 cells: Following a 20 min incubation at 37° C., the assay was terminated by setting the cells on ice and centrifuging at 2,000 rpm for 5 min at 4° C. […] Immulon II removawells (Dynatech; Chantilly, Va.) were coated overnight with 100 μl of protein G (1 mg/ml in 0.1M NaHCO3, pH 9.0) at 4° C. Prior to use, protein G-coated plates were rinsed with PBS-gelatin-Tween (phosphate buffered saline containing 0.1% gelatin, 0.2% Tween-20) 3 times quickly, and then once for 30 minutes. […] Plates were incubated 2 hr at 37° C. or overnight at 4° C., rinsed 3 times with sodium acetate buffer, blotted dry, and then individual wells were broken off and bound radioactivity was determined in a gamma counter.

Molecule: N[C@@H](CCC(=O)O)C(=O)O [L-Glutamate, (L)-glutamic acid]
- pigment aggregation or dispersion response (GABABR1a): no pigment aggregation or dispersion response

- reduction of forskolin-stimulated cAMP synthesis in HEK293 cells (hgb2-42 cells transfected with GABABR1a, baclofen) (murine GABABR1a (murine)): 34 % reduction
- reduction of forskolin-stimulated cAMP synthesis in HEK293 cells (rgb1a-50 cells transfected with HG20, 30 µM GABA plus AOAA and nipecotic acid) (murine GABABR1a (murine)): 40 % decrease
- reduction of forskolin-stimulated cAMP synthesis in HEK293 cells (rgb1a-50 cells transfected with HG20, 30 µM baclofen) (murine GABABR1a (murine)): 28 % reduction
Molecule: HG20 as expressed in HEK293 cells (HG20 cDNA in pcDNA3.1) (from UniProt O75899 42-941) (receptor)

Molecule: NC/C=C\C(=O)O [cis-4-aminocrotonic acid]
- pigment aggregation or dispersion response (GABABR1a): no pigment aggregation or dispersion response

Molecule: O=S(=O)(O)C1CCNCC1 [piperidine-4-sulfonic acid]
- pigment aggregation or dispersion response (GABABR1a): no pigment aggregation or dispersion response

Molecule: NCC(CC(=O)O)c1ccc(Cl)cc1 (stereo not shown) [baclofen]
- inhibition of forskolin-stimulated cAMP synthesis (wild-type HEK293 cells): did not exhibit

- reduction of forskolin-stimulated cAMP synthesis in HEK293 cells (hgb2-42 cells transfected with GABABR1a, GABA plus AOAA and nipecotic acid) (murine GABABR1a (murine)): 43 % decrease
Molecule: HG20 as expressed in HEK293 cells (HG20 cDNA in pcDNA3.1) (from UniProt O75899 42-941)

- binding result [2]: binds
B1: murine GABABR1a (receptor)
chain: GAQTPNVTSEGCQIIHPPWEGGIRYRGLIRDQVKAINFLPVDYEIEYVCRGEREVVGPKVRKCLANGSWTDMDTPSRCVRICSKSYLTLENGKVFLTGGDLPALDGARVDFRCDPDFHLVGSSRSICSQGQWSTPKPHCQVNRTPHSERRAVYIGALFPMSGGWPGGQACQPAVEMALEDVNSRRDILPDYELKLIHHDSKCDPGQATKYLYELLYNDPIKIILMPGCSSVSTLVAEAARMWNLIVLSYGSSSPALSNRQRFPTFFRTHPSATLHNPTRVKLFEKWGWKKIATIQQTTEVFTSTLDDLEERVKEAGIEITFRQSFFSDPAVPVKNLKRQDARIIVGLFYETEARKVFCEVYKERLFGKKYVWFLIGWYADNWFKTYDPSINCTVEEMTEAVEGHITTEIVMLNPANTRSISNMTSQEFVEKLTKRLKRHPEETGGFQEAPLAYDAIWALALALNKTSGGGGRSGVRLEDFNYNNQTITDQIYRAMNSSSFEGVSGHVVFDASGSRMAWTLIEQLQGGSYKKIGYYDSTKDDLSWSKTDKWIGGSPPADQTLVIKTFRFLSQKLFISVSVLSSLGIVLAVVCLSFNIYNSHARYIQNSQPNLNNLTAVGCSLALAVVFPLGLDGYHIGRSQFPFVCQARLWLLGLGFSLGYGSMFTKIWWVHTVFTKKEEKKEWRKTLEPWKLYATVGLLVGMDVLTLAIWQIVDPLHRTIETFAKEEPKEDIDVSILPQLEHCSSKKMNTWLGIFYGYKGLLLLLGIFLAYETKSVSTEKINDHRAVGMAIYNVAVLCLITAPVTMILSSQQDAAFAFASLAIVFSSYITLVVLFVPKMRRLITRGEWQSETQDTMKTGSSTNNNEEEKSRLLEKENRELEKIIAEKEERVSELRHQLQSRQQLRSRRHPPTPPDPSGGLPRGPSEPPDRLSCDGSRVHLLYK
notes: Full-length cDNA was expressed in COS-7 cells, HEK293 cells, melanophores and oocytes; also called mgb1a; gb1a
- binding result [1]: binds

From patent publication US20050130203A1, “Novel GABAB receptor DNA sequences” (Board of Regents, The University of Texas System, priority 1998, published 2005)
